Test results as given in patent US20170101476A1 (Novartis, published 2017).

T1: Human CXCR2 (human, UniProt P25025 1-360)
T1 sequence: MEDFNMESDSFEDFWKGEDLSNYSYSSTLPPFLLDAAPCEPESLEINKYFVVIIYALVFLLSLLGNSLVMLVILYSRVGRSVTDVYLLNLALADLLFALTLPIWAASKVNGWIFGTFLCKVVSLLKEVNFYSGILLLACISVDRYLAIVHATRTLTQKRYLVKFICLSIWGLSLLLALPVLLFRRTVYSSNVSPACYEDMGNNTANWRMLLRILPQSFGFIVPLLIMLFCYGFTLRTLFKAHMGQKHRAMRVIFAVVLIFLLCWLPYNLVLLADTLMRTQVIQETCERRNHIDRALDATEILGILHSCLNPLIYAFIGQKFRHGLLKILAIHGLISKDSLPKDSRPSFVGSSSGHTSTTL

T2: Cynomolgus CXCR2 (cynomolgus, UniProt Q28519 3-353 (rhesus entry))
T2 chain: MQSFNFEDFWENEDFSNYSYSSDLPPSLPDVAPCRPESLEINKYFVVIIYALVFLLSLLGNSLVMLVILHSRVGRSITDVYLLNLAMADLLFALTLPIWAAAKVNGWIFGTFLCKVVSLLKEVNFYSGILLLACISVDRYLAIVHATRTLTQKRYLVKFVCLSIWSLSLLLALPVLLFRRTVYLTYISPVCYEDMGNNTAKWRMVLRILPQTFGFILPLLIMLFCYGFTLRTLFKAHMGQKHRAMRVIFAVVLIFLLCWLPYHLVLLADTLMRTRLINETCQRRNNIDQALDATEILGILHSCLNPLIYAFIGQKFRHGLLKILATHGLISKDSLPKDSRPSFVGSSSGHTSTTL

B1: CXCR20024 (VHH, not shown: small tags and cut ends)
chain: EVQLVESGGGLVQPGGSLRLSCVASGRIFSSNAMGWFRQAPGKEREFVAAITWRSGGSAYYADSAKGRFTISRDNAKNTVYLQMNSLKPEDTAVYYCAAGGSSWLSFPPDYWGQGTQVTVSSGGGGSGGGGSGGGGSGGGGSGGGGSGGGGSGGGGSEVQLVESGGGLVQPGGSLRLSCVASGRIFSSNAMGWFRQAPGKEREFVAAITWRSGGSAYYADSAKGRFTISRDNAKNTVYLQMNSLKPEDTAVYYCAAGGSSWLSFPPDYWGQGTQVTVSS
B2: CXCR20025 (bispecific antibody, not shown: small tags and cut ends)
chain: EVQLVESGGGLVQAGGSLRLSCAASGRTFSDYAMGWFRQAPGKEREFVAAITWNGGRVFYTASVKGRFTISRDNAKNTMYLQMNSLKPEDTAVYYCAADKDRRTDYLGHPVAYWGQGTQVTVSSGGGGSGGGGSGGGGSGGGGSGGGGSGGGGSGGGGSEVQLVESGGGLVQAGESLRLSCAASGSTFDFKVMGWYRQPPGKQREGVAAIRLSGNMHYAESVKGRFTISKANAKNTVYLQMNSLRPEDTAVYYCKVNIRGQDYWGQGTQVTVSS
B3: CXCR20027 (bispecific antibody, not shown: small tags and cut ends)
chain: EVQLVESGGGLVQPGGSLRLSCVASGRIFSSNAMGWFRQAPGKEREFVAAITWRSGGSAYYADSAKGRFTISRDNAKNTVYLQMNSLKPEDTAVYYCAAGGSSWLSFPPDYWGQGTQVTVSSGGGGSGGGGSGGGGSGGGGSGGGGSGGGGSGGGGSEVQLVESGGGLVQAGGSLRLSCAASGRTFSDYAMGWFRQAPGKEREFVAAITWNGGRVFYTASVKGRFTISRDNAKNTMYLQMNSLKPEDTAVYYCAADKDRRTDYLGHPVAYWGQGTQVTVSS
B4: CXCR20029 (other, not shown: small tags and cut ends)
chain: EVQLVESGGGLVQPGGSLRLSCVASGRIFSSNAMGWFRQAPGKEREFVAAITWRSGGSAYYADSAKGRFTISRDNAKNTVYLQMNSLKPEDTAVYYCAAGGSSWLSFPPDYWGQGTQVTVSSGGGGSGGGGSGGGGSGGGGSGGGGSGGGGSGGGGSEVQLVESGGGLVQAGGSLTLSCAVSGSTFRINTMGWYRRAPGKQRELVAARDRGGYINYVDSVKGRFTVSRDNAKPTMYLQMNSLKPEDTAVYYCHAGTQDRTGRNFDRWGQGTQVTVSS
B5: CXCR20031 (bispecific antibody, not shown: small tags and cut ends)
chain: EVQLVESGGELVQPGGSLRLSCAASGSILTINAMGWYRQAPGKQRELVVRRTRGGSTTYQDSVKGRFTISADIAKKTMYLQMNSLKPEDTAVYYCMLDDRGGVYWGQGTQVTVSSGGGGSGGGGSGGGGSGGGGSGGGGSGGGGSGGGGSEVQLVESGGGLVQPGGSLRLSCVASGRIFSSNAMGWFRQAPGKEREFVAAITWRSGGSAYYADSAKGRFTISRDNAKNTVYLQMNSLKPEDTAVYYCAAGGSSWLSFPPDYWGQGTQVTVSS
B6: CXCR20036 (other, not shown: small tags and cut ends)
chain: EVQLVESGGGLVQAGGSLTLSCAVSGSTFRINTMGWYRRAPGKQRELVAARDRGGYINYVDSVKGRFTVSRDNAKPTMYLQMNSLKPEDTAVYYCHAGTQDRTGRNFDRWGQGTQVTVSSGGGGSGGGGSGGGGSGGGGSGGGGSGGGGSGGGGSEVQLVESGGGLVQAGGSLRLSCAASGRTFSDYAMGWFRQAPGKEREFVAAITWNGGRVFYTASVKGRFTISRDNAKNTMYLQMNSLKPEDTAVYYCAADKDRRTDYLGHPVAYWGQGTQVTVSS
B7: CXCR20011 (VHH, not shown: small tags and cut ends)
chain: EVQLVESGGGLVQPGGSLRLSCVASGSIVRINTMGWYRQTPGKQRELVADITSGGNINYIDAVKGRFTISRDNTKNTVYLQMNSLKPEDTAVYYCNAEIVVLVGVWTQRARTGNYWGQGTQVTVSSGGGGSGGGGSGGGGSGGGGSGGGGSGGGGSGGGGSEVQLVESGGGLVQPGGSLRLSCVASGSIVRINTMGWYRQTPGKQRELVADITSGGNINYIDAVKGRFTISRDNTKNTVYLQMNSLKPEDTAVYYCNAEIVVLVGVWTQRARTGNYWGQGTQVTVSS
B8: CXCR20013 (bispecific antibody, not shown: small tags and cut ends)
chain: EVQLVESGGELVQPGGSLRLSCAASGSILTINAMGWYRQAPGKQRELVVRRTRGGSTTYQDSVKGRFTISADIAKKTMYLQMNSLKPEDTAVYYCMLDDRGGVYWGQGTQVTVSSGGGGSGGGGSGGGGSGGGGSGGGGSGGGGSGGGGSEVQLVESGGGLVQPGGSLRLSCVASGSIVRINTMGWYRQTPGKQRELVADITSGGNINYIDAVKGRFTISRDNTKNTVYLQMNSLKPEDTAVYYCNAEIVVLVGVWTQRARTGNYWGQGTQVTVSS
B9: CXCR20015 (other, not shown: small tags and cut ends)
chain: EVQLVESGGELVQPGGSLRLSCAASGSILTINAMGWYRQAPGKQRELVVRRTRGGSTTYQDSVKGRFTISADIAKKTMYLQMNSLKPEDTAVYYCMLDDRGGVYWGQGTQVTVSSGGGGSGGGGSGGGGSGGGGSGGGGSGGGGSGGGGSEVQLVESGGGLVQPGGSVRLSCVASGIIFRLSALGWTRQGPGKAREWVAGINSDGTTNYADPVKGRFTISRDNAKNTIYLHMDMLKPEDTAVYYCASGKYRGQGTQVTVSS
B10: CXCR20016 (other, not shown: small tags and cut ends)
chain: EVQLVESGGGLVQPGGSVRLSCVASGIIFRLSALGWTRQGPGKAREWVAGINSDGTTNYADPVKGRFTISRDNAKNTIYLHMDMLKPEDTAVYYCASGKYRGQGTQVTVSSGGGGSGGGGSGGGGSGGGGSGGGGSGGGGSGGGGSEVQLVESGGELVQPGGSLRLSCAASGSILTINAMGWYRQAPGKQRELVVRRTRGGSTTYQDSVKGRFTISADIAKKTMYLQMNSLKPEDTAVYYCMLDDRGGVYWGQGTQVTVSS
B11: CXCR20017 (other, not shown: small tags and cut ends)
chain: EVQLVESGGGLVQPGGSLRLSCVASGSIVRINTMGWYRQTPGKQRELVADITSGGNINYIDAVKGRFTISRDNTKNTVYLQMNSLKPEDTAVYYCNAEIVVLVGVWTQRARTGNYWGQGTQVTVSSGGGGSGGGGSGGGGSGGGGSGGGGSGGGGSGGGGSEVQLVESGGGLVQPGGSVRLSCVASGIIFRLSALGWTRQGPGKAREWVAGINSDGTTNYADPVKGRFTISRDNAKNTIYLHMDMLKPEDTAVYYCASGKYRGQGTQVTVSS

What was measured:
Assay in all cases: cell-based or functional assay
[1] = biological target: T1, Human CXCR2
[2] = biological target: T1, Human CXCR2; remark: listed apart in the source
[3] = biological target: T2, Cynomolgus CXCR2

Row | Binder | FLIPR IC50, GRO-α induced intracellular calcium release [2] [nM] | FLIPR IC50, GRO-α induced intracellular calcium release [3] [nM] | other results
1 | B1 | 26.4 | 11.8 | [35S]GTPγS % inhibition of max, GRO-α [1]: 100%; [35S]GTPγS accumulation IC50, GRO-α [1]: 30.3 nM
2 | B2 | 12.2 | 7.88 | [35S]GTPγS % inhibition of max, GRO-α [1]: 100%; [35S]GTPγS accumulation IC50, GRO-α [1]: 0.891 nM
3 | B3 | 17.8 | 12.7 | 
4 | B4 | 17.1 | 10.1 | 
5 | B5 | 15.2 | 4.26 | [35S]GTPγS % inhibition of max, ENA-78 [1]: 100%; [35S]GTPγS % inhibition of max, IL-8 [1]: 100%; [35S]GTPγS accumulation IC50, ENA-78 [1]: 1.38 nM; [35S]GTPγS accumulation IC50, IL-8 [1]: 0.84 nM
6 | B6 | 7.86 | 4.27 | 
7 | B7 | 137 |  | 
8 | B8 | 2.93 | 29.2 | 
9 | B9 | 2.78 | 2870 | 
10 | B10 | 2.36 | 1100 | 
11 | B11 | 22.9 | 1080 | 
